Residue numbers refer to the chain shown, from its start. In names and notes the source's numbering stands.

The values that follow come from patent US20210388087A1.

The chains are these.
B1: H183/L072 VL H27dA (antibody, name in Kabat numbering, V domains shown)
VH: QVQLVESGGGLVQPGRSLRLSCAASGFTFSNAWMHWVRQAPGKGLEWVAQIKDKGNAYAAYYAPSVKGRFTISRDDSKNSIYLQMNSLKTEDTAVYYCHYVHYASASTVLPAFGVDAWGQGTTVTVSS
VL: DIVMTQSPLSLPVTPGEPASISCQASQELVAMNRNTYLHWYQQKPGQAPRLLIYKVSNRFPGVPDRFSGSGSGTDFTLKISRVEAEDVGVYYCAQGTSVPFTFGQGTKLEIK
B2: H183/L072 VL H27dP (antibody, name in Kabat numbering, V domains shown)
VH: B1 VH
VL: B1 VL with A31P
B3: H183/L072 VL Y32M (antibody, name in Kabat numbering, V domains shown)
VH: B1 VH
VL: B1 VL with A31H, Y37M
B4: H183/L072 VL N30P (antibody, name in Kabat numbering, V domains shown)
VH: B1 VH
VL: B1 VL with A31H, N35P
B5: H183/L072 VL V27cP (antibody, name in Kabat numbering, V domains shown)
VH: B1 VH
VL: B1 VL with V30P, A31H
B6: H183/L072 VL T31M (antibody, name in Kabat numbering, V domains shown)
VH: B1 VH
VL: B1 VL with A31H, T36M
B7: H183/L072 VL N28L (antibody, name in Kabat numbering, V domains shown)
VH: B1 VH
VL: B1 VL with A31H, N33L
B8: H183/L072 VL N28I (antibody, name in Kabat numbering, V domains shown)
VH: B1 VH
VL: B1 VL with A31H, N33I
B9: H183/L072 VL T31P (antibody, name in Kabat numbering, V domains shown)
VH: B1 VH
VL: B1 VL with A31H, T36P
B10: H183/L072 VL H27dM (antibody, name in Kabat numbering, V domains shown)
VH: B1 VH
VL: B1 VL with A31M
B11: H183/L072 VL N28P (antibody, name in Kabat numbering, V domains shown)
VH: B1 VH
VL: B1 VL with A31H, N33P
B12: H183/L072 VL N28M (antibody, name in Kabat numbering, V domains shown)
VH: B1 VH
VL: B1 VL with A31H, N33M
B13: H183/L072 VL A25L (antibody, name in Kabat numbering, V domains shown)
VH: B1 VH
VL: B1 VL with A25L, A31H
B14: H183/L072 VL H27dI (antibody, name in Kabat numbering, V domains shown)
VH: B1 VH
VL: B1 VL with A31I
B15: H183/L072 VL H27dL (antibody, name in Kabat numbering, V domains shown)
VH: B1 VH
VL: B1 VL with A31L
B16: H183/L072 VL Y32I (antibody, name in Kabat numbering, V domains shown)
VH: B1 VH
VL: B1 VL with A31H, Y37I
B17: H183/L072 VL H34I (antibody, name in Kabat numbering, V domains shown)
VH: B1 VH
VL: B1 VL with A31H, H39I
B18: H183/L072 VL Y32P (antibody, name in Kabat numbering, V domains shown)
VH: B1 VH
VL: B1 VL with A31H, Y37P
B19: H183/L072 VL Q27P (antibody, name in Kabat numbering, V domains shown)
VH: B1 VH
VL: B1 VL with Q27P, A31H
B20: H183/L072 VL Q24P (antibody, name in Kabat numbering, V domains shown)
VH: B1 VH
VL: B1 VL with Q24P, A31H
B21: H183/L072 VL R29P (antibody, name in Kabat numbering, V domains shown)
VH: B1 VH
VL: B1 VL with A31H, R34P
B22: H183/L072 VL L33P (antibody, name in Kabat numbering, V domains shown)
VH: B1 VH
VL: B1 VL with A31H, L38P
B23: H183/L072 VL L33I (antibody, name in Kabat numbering, V domains shown)
VH: B1 VH
VL: B1 VL with A31H, L38I
B24: H183/L072 VL H34P (antibody, name in Kabat numbering, V domains shown)
VH: B1 VH
VL: B1 VL with A31H, H39P
B25: H183/L072 VL H34M (antibody, name in Kabat numbering, V domains shown)
VH: B1 VH
VL: B1 VL with A31H, H39M
B26: H183/L072 VH S99P (antibody, name in Kabat numbering, V domains shown)
VH: B1 VH with S105P
VL: B1 VL with A31H
B27: H183/L072 VH I51W (antibody, name in Kabat numbering, V domains shown)
VH: B1 VH with I51W
VL: B1 VL with A31H
B28: H183/L072 VH V100iP (antibody, name in Kabat numbering, V domains shown)
VH: B1 VH with V115P
VL: B1 VL with A31H
B29: H183/L072 VH D52aW (antibody, name in Kabat numbering, V domains shown)
VH: B1 VH with D53W
VL: B1 VL with A31H
B30: H183/L072 VH A57W (antibody, name in Kabat numbering, V domains shown)
VH: B1 VH with A60W
VL: B1 VL with A31H
B31: H183/L072 VH F100gP (antibody, name in Kabat numbering, V domains shown)
VH: B1 VH with F113P
VL: B1 VL with A31H
B32: H183/L072 VH M34W (antibody, name in Kabat numbering, V domains shown)
VH: B1 VH with M34W
VL: B1 VL with A31H
B33: H183/L072 VH L100dP (antibody, name in Kabat numbering, V domains shown)
VH: B1 VH with L110P
VL: B1 VL with A31H
B34: H183/L072 VH D101P (antibody, name in Kabat numbering, V domains shown)
VH: B1 VH with D116P
VL: B1 VL with A31H
B35: H183/L072 VH S100aP (antibody, name in Kabat numbering, V domains shown)
VH: B1 VH with S107P
VL: B1 VL with A31H
B36: H183/L072 VH A102P (antibody, name in Kabat numbering, V domains shown)
VH: B1 VH with A117P
VL: B1 VL with A31H
B37: H183/L072 VH N53W (antibody, name in Kabat numbering, V domains shown)
VH: B1 VH with N56W
VL: B1 VL with A31H
B38: H183/L072 VH T100bP (antibody, name in Kabat numbering, V domains shown)
VH: B1 VH with T108P
VL: B1 VL with A31H
B39: H183/L072 VH G100hP (antibody, name in Kabat numbering, V domains shown)
VH: B1 VH with G114P
VL: B1 VL with A31H
B40: H183/L072 VH Y55W (antibody, name in Kabat numbering, V domains shown)
VH: B1 VH with Y58W
VL: B1 VL with A31H
B41: H183/L072 VH H35W (antibody, name in Kabat numbering, V domains shown)
VH: B1 VH with H35W
VL: B1 VL with A31H
B42: H183/L072 VH V100cP (antibody, name in Kabat numbering, V domains shown)
VH: B1 VH with V109P
VL: B1 VL with A31H
B43: H183/L072 VH K52W (antibody, name in Kabat numbering, V domains shown)
VH: B1 VH with K52W
VL: B1 VL with A31H
B44: H183/L072 VH A32W (antibody, name in Kabat numbering, V domains shown)
VH: B1 VH with A32W
VL: B1 VL with A31H

Human CD137 ECD (human), sequence (chain, as listed by the source limits assumed): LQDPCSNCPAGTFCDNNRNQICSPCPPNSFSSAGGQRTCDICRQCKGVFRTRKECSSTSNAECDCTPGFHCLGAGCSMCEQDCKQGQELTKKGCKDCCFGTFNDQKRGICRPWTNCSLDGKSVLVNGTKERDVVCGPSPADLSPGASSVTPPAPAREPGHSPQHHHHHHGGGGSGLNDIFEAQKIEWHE
Human CD3eg linker (human), sequence (chain, as listed by the source limits assumed): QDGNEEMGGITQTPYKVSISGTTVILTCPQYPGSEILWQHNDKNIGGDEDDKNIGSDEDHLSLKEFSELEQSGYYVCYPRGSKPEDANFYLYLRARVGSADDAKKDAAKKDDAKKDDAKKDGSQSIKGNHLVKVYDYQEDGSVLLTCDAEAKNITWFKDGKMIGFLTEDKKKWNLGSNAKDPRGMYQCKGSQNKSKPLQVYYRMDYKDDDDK

One assay addresses Human CD3eg linker (human). Nature of the assay: SPR; fold vs parent H183/L072. (In general: SPR reads the build-up and loss of mass on a sensor chip optically.)
B1: the fold change of affinity was 0 fold. Still for that read-out and setting: for B2 the value was 0 fold; for B3, 0 fold. For the molecule B4, the fold change of affinity was 0 fold.

As for B5, the fold change of affinity is 0 fold. Turning to B6, the fold change of affinity came out at 0 fold. Take B7: the fold change of affinity stood at 0 fold. On to B8, for which the fold change of affinity was determined as 0 fold. Same read-out and setting: for B9 the value was 0 fold; for B10, 0 fold. The same measure, in the same setting: for B11 the value was 0 fold. On to B12, for which the fold change of affinity stood at 0 fold. For the molecule B13, the fold change of affinity came out at 0 fold. For B14, the fold change of affinity turned out to be 0 fold. B15: the fold change of affinity amounted to 0 fold. On the same count and under the same terms, with B16 the figure was 0 fold; with B17, 0 fold; with B18, 0 fold. As to B19, the fold change of affinity came out at 0 fold. On the same count and under the same terms, for B20 the value was 0 fold. B21: the fold change of affinity was found to be 0 fold. On to B22, for which the fold change of affinity stood at 0 fold.

As for B23, the fold change of affinity was found to be 0 fold.

Turning to B24, the fold change of affinity was 0 fold.

For the molecule B25, the fold change of affinity stood at 0 fold.

A further assay concerns the target Human CD137 ECD (human). The experiment in a line: single mutant vs template dBBDu183H.
As for B26, the fold change of affinity came out at 0 fold. B27: the fold change of affinity is 0 fold. As to B28, the fold change of affinity was 0 fold. Still for that read-out and setting: for B29 the value was 0 fold; for B30, 0 fold. The same measure, in the same setting: with B31 the figure was 0 fold; with B32, 0 fold. In the case of B33, the fold change of affinity was found to be 0 fold. Consider B34, for which the fold change of affinity is 0 fold. Still for that read-out and setting: with B35 the figure was 0 fold. For the molecule B36, the fold change of affinity is 0 fold. Still for that read-out and setting: with B37 the figure was 0 fold; with B38, 0 fold; with B39, 0 fold.

Take B40: the fold change of affinity came to 0 fold. For the molecule B41, the fold change of affinity stood at 0 fold.

As to B42, the fold change of affinity came to 0 fold.

Turning to B43, the fold change of affinity came to 0 fold. Still for that read-out and setting: with B44 the figure was 0 fold.
